Data reported in patent US20060246077 (published 2006).

Molecular target: MUC18-V5-His (extracellular domain) (human, UniProt P43121)
Assay: SPR, average

Chain of MUC18-V5-His (extracellular domain) (P43121 1-559): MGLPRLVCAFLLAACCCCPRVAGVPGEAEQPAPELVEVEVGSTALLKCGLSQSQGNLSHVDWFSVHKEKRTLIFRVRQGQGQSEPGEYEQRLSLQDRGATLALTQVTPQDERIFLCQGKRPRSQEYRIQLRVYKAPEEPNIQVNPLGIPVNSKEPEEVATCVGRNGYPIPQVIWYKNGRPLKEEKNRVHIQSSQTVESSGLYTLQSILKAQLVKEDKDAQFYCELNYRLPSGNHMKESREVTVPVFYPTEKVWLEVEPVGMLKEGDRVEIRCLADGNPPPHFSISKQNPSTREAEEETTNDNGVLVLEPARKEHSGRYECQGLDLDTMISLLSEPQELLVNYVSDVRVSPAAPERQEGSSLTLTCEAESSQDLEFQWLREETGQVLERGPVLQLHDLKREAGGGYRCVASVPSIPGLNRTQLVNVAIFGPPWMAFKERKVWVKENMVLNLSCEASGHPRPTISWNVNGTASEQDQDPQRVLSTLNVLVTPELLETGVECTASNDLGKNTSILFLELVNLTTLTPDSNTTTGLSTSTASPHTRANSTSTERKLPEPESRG

- Kd: 0.61 nM
B1: c3.19.1 (antibody, V domains shown)
VH: QVQLQESGPGLVKPSETLSLTCTVSGGSISSYYWSWIRQPPGKGLEWIGYIYYTWTSNYNPSLKSRVTISVDTSKNQFSLRLSSVTAADTAVYYCARDQGQWLLPDAFDIWGQGTMVTVSS
VL: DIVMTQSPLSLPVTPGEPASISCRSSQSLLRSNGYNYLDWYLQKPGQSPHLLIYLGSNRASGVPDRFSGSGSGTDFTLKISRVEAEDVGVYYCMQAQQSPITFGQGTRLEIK
